Changes are numbered by the printed parent chain. Names and notes keep the numbering of the source. Blank lines part the entries; values can stand above or below the binder they belong to.
What was measured:
[1] = molecular target: T1, biotinylated murine CCL20, O89093; assay: capture ELISA; details: chain shown with the change; highest mAb concentration, log[nM] about 1.8; plate-coated anti-Fc antibody to capture the antibody variants; parent: est. 1.8; read off a plot
T1 chain: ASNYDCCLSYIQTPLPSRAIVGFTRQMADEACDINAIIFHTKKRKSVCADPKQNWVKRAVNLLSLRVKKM

[2] = molecular target: T2, biotinylated murine CCL20 (Mus musculus, UniProt O89093, biotin); assay: ELISA; capture ELISA: plate-coated anti-mouse Fc antibody (1 ug/mL) captures the antibody variant (5 ug/mL); biotinylated muCCL20 titrated from 0 to 600 nM, 1 h; details: both partners purified
T2 construct: CCL20, mouse; recombinant; m2 with biotin; also called biotinylated muCCL20; muCCL20 antigen; source: in-house, standard mammalian cell expression; biotinylated

murine CCL20 = molecular target: T3, murine CCL20 (Mus musculus, UniProt O89093); assay: ELISA; mouse or human CCL20 coated at 2 ug/mL on Maxisorp plates overnight at 4°C; antibody dilutions starting at 60 nM; detected with anti-Fc-HRP; details: both partners purified
T3 construct: CCL20, mouse; recombinant; also called muCCL20; mouse CCL20; source: in-house, standard mammalian cell expression; purified

response [1]: 0.86 A450
binding result [2]: binds
B1: AB1 alanine variant 7 (H:S28A, H:N113A, L:K36A) (antibody, V domains shown)
VH: QVQLQQSGAELAKPGSSVKISCKAYGASFTTNSIHWIKQTTGQALEWTGYIAPGSGGARYNEKFKGKATLTVDKSSGTAYMQLSSLTPVDTAVYYCALNIGTAPFTYWGQGTLVTVSS
VL: DIVMTQGALPNPVPSGESVSITCRSSKSLLYSDGATYLNWYLQRPGQSPQLLIYWMSTRASGVSDRFSGSGSGTDFTLKISGVEAEDVGVYYCQQGLEFPRTFGSGTKLEIK
notes: IMGT numbering; IgG1, as m1; source: HEK293FT, transiently transfected, purified (Protein A)

binding result [2]: binds
binding result (murine CCL20): binds
B2: AB1 anti-muCCL20 monoclonal antibody (antibody, V domains shown)
VH: B1 VH with A27S, A103N
VL: B1 VL with A35K
notes: VH of AB1; VL of AB1; IgG1 (in-house mammalian expression vector); hybridoma derived; also called WT AB1; parental AB1; source: HEK293FT, transiently transfected, purified from supernatant (Protein A)
